Experiment [1] has as its target T1, gB-p17 (Human cytomegalovirus, strain AD169).
T1 chain: HRANETIYNTTLKYG
Kind of experiment: ELISA. The conditions noted are these: both partners purified.

Experiment [2] deals with T2, gB 15-mer library peptide, residues 69-83 (Human cytomegalovirus, strain AD169).
T2 construct: source: synthetic peptide, bought: JPT Peptide Technologies
T2 chain: ETIYNTTLKYGDVVG
Kind of experiment: ELISA. As to conditions: both partners purified. For orientation: An ELISA detects its analyte on a solid surface through an enzyme-linked reagent.

The target in the next experiment is T3, gB P_(064-083) (Human cytomegalovirus, strain AD169).
T3 construct: source: synthetic peptide
T3 chain: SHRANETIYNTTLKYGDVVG
In words: ELISA. As to conditions: both partners purified.

For experiment [3], the target named is T4, biotinylated full-length peptide, residues 59–88 of gB (Human cytomegalovirus AD169, UniProt P06473).
T4 construct: also called full-length peptide (white column); source: synthetic peptide, bought: JPT Peptide Technologies
T4 chain: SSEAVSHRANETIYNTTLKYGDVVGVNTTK
In words: ELISA. As to conditions: both partners purified.

For a further experiment, the target named is gB on HCMV whole virion (Human cytomegalovirus, virion strain …, UniProt P06473). Kind of experiment: ELISA; inactivated virion (2 μg/mL) coated; 2-fold serially diluted IgG, Fab or (Fab)2, 90 min RT; HRP goat anti-human (Fab)2. As to conditions: one partner purified.
gB on HCMV whole virion, sequence (P06473 32-906): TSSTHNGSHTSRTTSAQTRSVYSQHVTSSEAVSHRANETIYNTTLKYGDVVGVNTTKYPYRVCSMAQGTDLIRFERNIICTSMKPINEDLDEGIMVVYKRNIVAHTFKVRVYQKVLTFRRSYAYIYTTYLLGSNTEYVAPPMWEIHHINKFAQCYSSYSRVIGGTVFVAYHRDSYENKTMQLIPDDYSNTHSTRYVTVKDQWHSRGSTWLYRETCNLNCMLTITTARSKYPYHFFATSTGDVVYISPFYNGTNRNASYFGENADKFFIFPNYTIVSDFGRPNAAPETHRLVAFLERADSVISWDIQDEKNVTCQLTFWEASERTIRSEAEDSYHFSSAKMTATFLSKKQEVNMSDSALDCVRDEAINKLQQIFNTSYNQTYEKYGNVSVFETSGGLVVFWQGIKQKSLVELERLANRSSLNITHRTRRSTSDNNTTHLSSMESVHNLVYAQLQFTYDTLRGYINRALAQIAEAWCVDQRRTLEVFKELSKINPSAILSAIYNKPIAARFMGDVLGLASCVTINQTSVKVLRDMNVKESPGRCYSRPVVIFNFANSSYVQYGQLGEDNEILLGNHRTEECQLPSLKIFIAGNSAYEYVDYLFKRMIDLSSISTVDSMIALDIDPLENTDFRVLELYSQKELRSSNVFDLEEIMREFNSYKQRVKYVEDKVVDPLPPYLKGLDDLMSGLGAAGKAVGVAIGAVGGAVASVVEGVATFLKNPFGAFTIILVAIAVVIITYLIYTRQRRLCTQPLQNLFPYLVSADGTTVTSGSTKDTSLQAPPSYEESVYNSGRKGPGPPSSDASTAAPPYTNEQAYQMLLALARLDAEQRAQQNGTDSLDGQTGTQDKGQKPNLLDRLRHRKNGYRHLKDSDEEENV
In experiment [4] the target is T1, gB-p17. Kind of experiment: crystal structure. The conditions noted are these: both partners purified.

Usually EC50 stands for the midpoint of the concentration-response curve. Low values mean a more potent agent, high ones a less potent agent.

B1: 3–25 IgG (antibody, V domains shown)
VH: QVQLVESGGGVVQPGRSLRLSCAASGFTFSNHGLHWVRQPPGKGLEWVAVVSKDGTNEHYADSVRGRFTISRDNSKNTLYLLMKSLRLEDTAVYYCAREGYCGDDRCYSGQPDYWGQGILVTVSS
VL: EIVLTQFPATLSLSPGERATLSCRASQSVGRYLAWYQQKPGQAPRLLIYDSSNRATGVPARFSGSGSGTDFTLSISSLEPEDFAVYFCQQRSHWPPLTFGGGTKVEIK
Turning to B1, the binding result (with gB-p17 [1]; in experiment [2]; with gB P_(064-083); in experiment [3]) was “binds” each time. Moreover, the 50% effective concentration (EC50) with gB on HCMV whole virion is 0.0189 µM.

B2: 3–25 Fab (Fab, V domains shown)
VH: B1 VH
VL: B1 VL
With B2, the binding result with gB-p17 [4] is listed as “binds”. The molecule also showed an EC50 with gB on HCMV whole virion of 0.0669 µM.

The values above are taken from PMC7425986 (PLoS Pathogens, 2020).
